Target: dyr1a_mouse Dyrk1a (UniProt Q61214)

Chain of Calcipressin-1 (Homo sapiens), P53805-2 S112A (P53805 other isoform, or with tags, fused parts or gaps S112A): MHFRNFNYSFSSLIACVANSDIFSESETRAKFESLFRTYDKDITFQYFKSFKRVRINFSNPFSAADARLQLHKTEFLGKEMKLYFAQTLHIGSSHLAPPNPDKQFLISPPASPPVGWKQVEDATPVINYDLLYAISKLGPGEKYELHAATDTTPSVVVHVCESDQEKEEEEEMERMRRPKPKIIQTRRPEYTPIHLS
Chain of Calcipressin-1 (Homo sapiens), P53805-2 S112A;T192A (P53805 other isoform, or with tags, fused parts or gaps S112A;T192A): as the sequence (P53805 other isoform, or with tags, fused parts or gaps S112A) above
Chain of Calcipressin-1 (Homo sapiens), P53805-2 T192A (P53805 other isoform, or with tags, fused parts or gaps T192A): as the sequence (P53805 other isoform, or with tags, fused parts or gaps S112A) above

Row | effect of a mutation on the interaction | Substance
1 | decreasing interaction | Calcipressin-1 (Homo sapiens), P53805-2 S112A
2 | disrupting interaction | Calcipressin-1 (Homo sapiens), P53805-2 S112A;T192A
3 | decreasing interaction | Calcipressin-1 (Homo sapiens), P53805-2 T192A
